The supplement of paper PMC9170038

Tested on: K4 kissing-loop RNA reporter
Experiment: apparent KD of K4 kissing-loop reporter; higher = weaker reporter binding
Details: Eterna round: R107
Method: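 RNA-MaP round R107: designed RNA switches with theophylline, tryptophan, arginine or FMN aptamers are transcribed on-chip within common flanks. They are titrated with a labelled K4 kissing-loop RNA reporter in RNA-MaP buffer (100 mM Tris pH 7.5, 80 mM KCl, 4 mM MgCl2), without ligand or with the indicated ligand. Median apparent KD per design.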

[1] = input ligand: theophylline 20 uM
[2] = input ligand: tryptophan 2.4 mM
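Further: bound reporter read as fluorescence of individual clusters on recovered sequencing chips by microscopy, with normalized cluster intensities fitted with a binding model.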

| Sequence | apparent KD of K4 kissing-loop reporter (input ligand: FMN 200 uM) | apparent KD of K4 kissing-loop reporter (input ligand: arginine 13.2 mM) | apparent KD of K4 kissing-loop reporter (input ligand: none) | apparent KD of K4 kissing-loop reporter [1] | apparent KD of K4 kissing-loop reporter [2] |
| --- | --- | --- | --- | --- | --- |
| GUCAGACCGGGACUCCAGUGAUGUUGGAGGCAGGAUAUCCAGUCGAGGAGAAGGGCCAGGGAUAUCGAGCUGCUCGGUUUGUAGU [Xexezaes] | 72.4 nM | 108 nM | 77.3 nM | 102 nM | 67.4 nM |
| CUGGGUUGACGAAAAGUCAACAAAAGAGAAGGAGCGCACGAAAGUGCAGGUAGGUCGCUCAAUCCAGUGAUGUUGGGUCAUCCAG [#SwitchBubble 14 #K4Late] | 568 nM | 580 nM | 800 nM | 1110 nM | 869 nM |
| AAACUUGCAGUGAUGUUGCAAGUAGGUGAUACCAGCAUCGAAAGAUGCCCUUGGCAGCACCAAAACAUCACUUAGGUGCUGUCUA [(H1)-(H2)-(T1)-(T2)-(H)'-(T)'_Design6] | 757 nM | 494 nM | 622 nM | 603 nM | 614 nM |
| AAGCAGUCACUCUAAGCCAUCGAAGAUGGACGAGGACCGGUACGGCCGCCACUCGGAGUGAUGUUCCGAAGACUGCAAAAUAAAA | 379 nM | 402 nM | 466 nM | 396 nM | 399 nM |
| GGAUAGGAUAGAGGAUAUGGGUUAGGCAAGAAUAACUUGUCUUGUAAAUCCAUGAGGAGUGAUGUUCCAGAAGGCUGUCCUAUCG [MatMod 5 - Jieux - Exclusion - FMN B] | 301 nM | 113 nM | 112 nM | 114 nM | 93.6 nM |
| UUUAAAUAUAGUGAUGUUAUAUAACAAUGACGAGGACCGGUACGGCCGCCACUCGAGAGAGAUAAUGGUCGUUAGAAUCUAACGC [AstrosSSTryA#5] | 760 nM | 778 nM | 685 nM | 963 nM | 484 nM |
| AAAAUAAACCAGUGAUGUUGGUAGCCAGAUACCAGCGACGAAAGUCGCCCUUGGCAGCUGUGGACGUACAAAAUAAGUACGUCCU | 248 nM | 232 nM | 268 nM | 238 nM | 230 nM |
| UAUUUAAUUUUUAAUUUUUAAAUUGCUGAUACCAGAGCCAAUUGGCUCCCUUGGCAGCGGAUCGAGUGAUGUUCGUAUAAUUUAA [AK1 SS Theophylline A] | 30.5 nM | 66.4 nM | 35 nM | 62.2 nM | 33.6 nM |
| UAAGCUCUGACGGCCGCCACUGCACGUGAAUCAGUGGUGGCUAACAUGAGUGAUGUUCAUGUAAGCAGGACCGGGUCAGAGCUAA [KL-XTryp-B14 #analogue] | 112 nM | 89.7 nM | 93.4 nM | 93.6 nM | 109 nM |
| CUAGGCCCUCGGCGGGACAUUGCGUGGGAAGGAGCGCAGAUAACUGCAGGUAGGUCGCCCAGUGAUGUUGGGCGAAUAUUGGUCA [Esinabige] | 102 nM | 98.3 nM | 124 nM | 120 nM | 110 nM |
| AAAAUAAAGCAGUCAAUCGGAGUGAUGUUCCGAGGACCGGUACGGCCGCCACUCGAGAGUCCAAAGGACUCAUGGCGAGACUGCA [#SwitchBubble 17 #K4Early] | 97 nM | 94.8 nM | 93.2 nM | 92.6 nM | 90.1 nM |
| GUUUUAUAAGAGGAUACCAGUACAAAUAAAGUACAUUAAUAGUAGAGUGAUGUUCUAAAGUACCCUUGGCAGCUUAGAUUAAGUU [ExTheophylB.E] | 147 nM | 236 nM | 170 nM | 252 nM | 116 nM |
| AUGGCACGACUUGCCCACAAUGUCUAUGCCCGAGGACCGGUACGGCCGCCACUCGGAUGCCGUGUCUUAUUAGUGAUGUUGAUAC [theeternabot_sameState_KL_Trp_A_4] | 355 nM | 204 nM | 411 nM | 355 nM | 199 nM |
| GGGCCGCGCGCGGCCGCCACUCAGUGAUGUUGGGUGAGCUUUGCUGUGCGUGCUGUUUCGUGACGGAGGACCGGGCGCGCGGCCU [BDazzled 2] | 129 nM | 93.6 nM | 121 nM | 113 nM | 215 nM |
| UGUAUGUGAUGUGAUACCAGUGAAGAGCCAGUGAUGUUGGUAGAACUGGUAUAUAAAUAACACCCUUGGCAGCACAGUCACGUAC [whbob_Ex_Theo_B_sa100] | 305 nM | 241 nM | 297 nM | 279 nM | 242 nM |
| ACUUAUUGUGUCGAUACCAGCAGGUGACGACGCCUCAUGGCUGACGAGUGAUGUUCGACUUGCCCUUGGCAGCGACAUACGCCGG [theeternabot_sameState_KL_Theo_B_12] | 354 nM | 228 nM | 356 nM | 365 nM | 310 nM |
| UGUACCGAGACAGGAUAUGUCGUCGAAAGACGAAAUGGAGUGAUGUUCCUUAAACUGCGAAAGCAGACAGAAGGGUCUUGGUACU [FmnBS 29 A10+U76] | 132 nM | 172 nM | 163 nM | 165 nM | 176 nM |
| GUCUGAUGCGUUGAUACCAGUCCUUCAGUGAUGUUGCAAGCGCGGCCUAUCAAGCAAUCCGACCCUUGGCAGCAAUAGGUCCGAA [theeternabot_exclusion_KL_Theo_B_9] | 892 nM | 568 nM | 850 nM | 872 nM | 661 nM |
| AAACGUUGGUCGGAUACCAGUUAGACCGAUAAGGUCAAAACUGGAGUGAUGUUCCCAAAUAACCCUUGGCAGCCGACCGACGAAA [MAT - Same State Theophlline B - Mod of Eli - D12] | 318 nM | 126 nM | 214 nM | 219 nM | 213 nM |
| AAAACGCUGUGAAUAACACAGCGAAAUUCGCGAGGACCGGUACGGCCGCCACUCGCUAACUGCGAGUGAUGUUCGAUAAUAAAAU [Mat - Mod of OpenEnded 3 - D3] | 166 nM | 90.3 nM | 170 nM | 161 nM | 104 nM |
| AUGCGGUGGAGGCUACCGCUAUUCUGAGAAGGAGCGCAGAUGACUGCAGGUAGGUCGCUUAGAGCUUGCAGUGAUGUUGCAAGUU [Islatimaed] | 200 nM | 168 nM | 191 nM | 174 nM | 204 nM |
| AGUACGGCAAACUUGCAACAAGCCGUACCACGAGGACCGGUACGGCCGCCACUCGAUAACUUGCAGUGAUGUUGCAAGUAAGAAU [(T)''-(K)'-(T)'-(T1)-(T2)-(K1)-(K2)_Design5] | 161 nM | 140 nM | 169 nM | 226 nM | 209 nM |

| Sequence | apparent KD of K4 kissing-loop reporter (input ligand: FMN 200 uM) | apparent KD of K4 kissing-loop reporter (input ligand: arginine 13.2 mM) | apparent KD of K4 kissing-loop reporter (input ligand: none) | apparent KD of K4 kissing-loop reporter [1] | apparent KD of K4 kissing-loop reporter [2] |
| --- | --- | --- | --- | --- | --- |
| UGAUACCAGACGGCCGCCACUCCCGUAAGUCAAAGACUUACGAAGAGAGUUUUCCAGUGAUGUUGGAGGACCGGGUCUGGUAUCU [FiskerMod 15 - Jieux - Exclusion - Tryptophan B] | 186 nM | 168 nM | 175 nM | 174 nM | 232 nM |
| CUGUUUUAGUCGGCCGCCACUGCAAGUGAUGUUUGGAGUAUUAUGCCGUUUCUGUCCAUUGAACCCAGGACCGGGACCGGAUCGU [theeternabot_exclusion_KL_Trp_B_8] | 212 nM | 167 nM | 206 nM | 186 nM | 189 nM |
| GUGCAGUGAUGUUGCACGAGGAAAGACGAUACCAGCCGUAAAUAAGGCCCUUGGCAGCGUAGGCUAGCAUAAAGUAUGCCAGUCU [Geleerra] | 117 nM | 112 nM | 121 nM | 113 nM | 96.5 nM |
| GGGUUUGCCGGAAGGAGCGCACUAUGGAGUGAUGUUCCAUGACCGCACAGCUUGCGGUCAGUGCAGGUAGGUCGCCGGUAACGUU [Enatbeve] | 237 nM | 181 nM | 180 nM | 201 nM | 194 nM |
| UAUCUUUGCUGAAGGAGCGAGCAUGUUGGAGUGAUGUUCCGAGCGAGUGAUGUUCGCAUAGCUCAGGUAGGUCGCAGUGGGAGGA [Same State Arginie B GF 16] | 129 nM | 111 nM | 147 nM | 164 nM | 135 nM |
| AAGUGUGUGGCGGCCGCCACUAGUCUCCAGUGAUGUUGGAGAUAUCACGUAAGUGAUAUCCGACAUAGGACCGGGCCAUAUAGAA [Same State - Tryptophan B (Freestyle 21)] | 601 nM | 318 nM | 688 nM | 556 nM | 474 nM |
| AAGAAGGUCAAAGACCUUCGUGCUCGUGAUACCAGUCGCGAAAGCGGCCCUUGGCAGCACGGCAGUGAUGUUGCCAAGAGCACAA [#13 K4 Theophylline A Same State] | 318 nM | 86.6 nM | 190 nM | 413 nM | 211 nM |
| GCAUGACGGUAAGGAUAUAGAUAAUCCUUAUAUACGUCGAGUGAUGUUCGAUGUGCCAAGGCACAUCUAGAAGGUACUGUUAGGU [Same State FMN B GF 18] | 772 nM | 760 nM | 1020 nM | 725 nM | 873 nM |
| AUAGGAGUGAUGUUCCUUAGUCUCUCCGAUACCAGUAUGGAAACAUACCCUUGGCAGCGGUAGACCGCAGAUUAGGAAACUAGUC [Theophylline A K4 3] | 657 nM | 726 nM | 785 nM | 503 nM | 610 nM |
| UGCAUGCUUGUAGUGAUGUUACAAGAUGAUACCAGUGCUUUUUUGCACCCUUGGCAGCGUCAUAGUGCAUGCACGUCGAAAGACG | 219 nM | 153 nM | 211 nM | 320 nM | 201 nM |
| AUUGUACAAGUGAUGUUUGUUUUUUCCGAAGGAGCGUCUAAUAAGACAGGUAGGUCGCGGAUUCUCUUAAUAAUCAGGUCAUUAA [JR_Nu_ExcArginiA_Sub020] | 364 nM | 275 nM | 305 nM | 281 nM | 221 nM |
| AGUCGAGAUUAUAGACUCGACAGGUCAGAAGGAGCGACGAAUUCGUCAGGUAGGUCGCUGACAUAGCAGUGAUGUUGCUAUACGG [Arg A SS t1] | 149 nM | 132 nM | 150 nM | 163 nM | 126 nM |
| GUAUCGCUAGGAGGAUAUUUCAAUUCGCCUAUAAUAGGUGAUACGGAGUGAUGUUCCGAUUUACGGAAAGAAGGCCUAGUGAUAC [FMN B 10] | 144 nM | 229 nM | 244 nM | 239 nM | 237 nM |
| AAGCAGUCACUCAAAGCCAUCGAAGAUGGUCGAGGACCGGUACGGCCGCCACUCGGAGUGAUGUUCCGAAGACUGCAAAAUAAAA | 407 nM | 394 nM | 424 nM | 411 nM | 346 nM |
| AGGUCACGAGGAAGGAGCGCCCUGACAGGUUGCUGCCGUGGGCAGUGAUGUUGCUCAGUCCGGCAGGUAGGUCGCCUCGUGACCU | 151 nM | 174 nM | 147 nM | 111 nM | 148 nM |
| AGGUCACAACUACAGUGAUGUUGUGGAGAGCAGGAUAUGCAGAAAUGCAGAAGGGCUCGCUCUCUAGUGACCGAUCAAAAGAUCA [Omei KL FMN A SS A v9] | 1360 nM | 311 nM | 669 nM | 545 nM | 532 nM |
| GUGCAGUGAUGUUGCACGAGGAAAGACGAUACCAGCCGCAAAUGUGGCCCUUGGCAGCGUGGGCUAGCACAAAAUAUGCUAGUCU [Ricegeusat] | 131 nM | 113 nM | 119 nM | 98.9 nM | 108 nM |
| UUAAUAAUUCAAGGAUAUGUUUUCUAUUUCGAGUGAUGUUCGGAAUUAAUAAAUUUAAAAGAUUAUACAGAAGGUGAUAGAUAGU [Cynwulf-mod#3] | 89.5 nM | 82.5 nM | 90.9 nM | 88.1 nM | 75.9 nM |
| GGAUAGGACAGAGGAUAUGGGCUAGGCAAGAAUAACUUGUCUAGCAAAUCCAUGAGGAGUGAUGUUCCAGAAGGUUGUCCUAUCG [FmnBX 1 U75] | 284 nM | 108 nM | 92.3 nM | 120 nM | 87.8 nM |
| UGUCAUUGGUCGGCCGCCACUUCGGUCAAAGACCAUAAAGAGUGAUGUUCUUAAGACGAAAGUCGAAGGACCGGGACCGAUGACU [TrypBS 11 #SwitchBubble #K4Middle] | 1110 nM | 744 nM | 1200 nM | 782 nM | 273 nM |
| UUCGAAAGUCGAAGGAGCGCUGGCGGUCAUAGACUAUAUCUGUAGUGAUGUUACAGAUUCCAGCAGGUAGGUCGCGACAGAGACA [Arg B SS t18b] | 124 nM | 88.4 nM | 107 nM | 89.8 nM | 108 nM |
